According to paper PMC9168836, “Clamping of DNA shuts the condensin neck gate” (Proceedings of the National Academy of Sciences of the …, 2021):

Columns and labels:
[1] = molecular target: Smc2;Smc4;Brn1 (kleisin);Ycs4 (HAWK) (Saccharomyces cerevisiae;Saccharomyces …, UniProt P38989;Q12267;P38170;Q06156 1-1170;1-1418;1-754;1-1176, |||); assay: cryo-EM structure; condensin tetramer; ADP.BeF3, Mg2+; clamped head module Form I, 2.95 A; 30 mM Tris/HCl pH 7.5, 60 mM NaCl, 1 mM TCEP, 2 mM MgCl2, 5 mM ADP, 1 mM BeSO4, 10 mM NaF; 30 min at room temperature; 1-2 uM 80-bp DNA or 100 nM circular DNA; conditions: protein: recombinant;recombinant;recombinant;recombinant; copies: 1;1;1;1; blunt
[2] = molecular target: Ycg1 (HAWK);Brn1 (kleisin) (Saccharomyces cerevisiae;Saccharomyces …, UniProt Q06680;P38170 1-1035;1-754, |); assay: cryo-EM structure; Ycg1-Brn1 part of the condensin pentamer; ADP.BeF3, Mg2+ in sample; 3.2 A; 30 mM Tris/HCl pH 7.5, 60 mM NaCl, 1 mM TCEP, 2 mM MgCl2, 5 mM ADP, 1 mM BeSO4, 10 mM NaF; 30 min at room temperature; 1-2 uM 80-bp DNA or 100 nM circular DNA; conditions: protein: recombinant;recombinant; tags: see P1;see P1; copies: 1;1; blunt
[3] = molecular target: Smc2;Smc4;Brn1 (kleisin);Ycs4 (HAWK);Ycg1 (HAWK) (Saccharomyces cerevisiae;Saccharomyces …, UniProt P38989;Q12267;P38170;Q06156;Q06680 1-1170;1-1418;1-754;1-1176;1-1035, ||||); assay: cryo-EM structure; condensin pentamer; ADP.BeF3, Mg2+; clamped head module map EMD-13785, Ycg1 not on head module; 30 mM Tris/HCl pH 7.5, 60 mM NaCl, 1 mM TCEP, 2 mM MgCl2, 5 mM ADP, 1 mM BeSO4, 10 mM NaF; 30 min at room temperature; 1-2 uM 80-bp DNA or 100 nM circular DNA; conditions: protein: recombinant;recombinant;recombinant;recombinant;recombinant; copies: 1;1;1;1;1; blunt

Measured: binding result

Chain of Smc2;Smc4;Brn1 (kleisin);Ycs4 (HAWK) (P38989 whole entry, chain 1 of 4): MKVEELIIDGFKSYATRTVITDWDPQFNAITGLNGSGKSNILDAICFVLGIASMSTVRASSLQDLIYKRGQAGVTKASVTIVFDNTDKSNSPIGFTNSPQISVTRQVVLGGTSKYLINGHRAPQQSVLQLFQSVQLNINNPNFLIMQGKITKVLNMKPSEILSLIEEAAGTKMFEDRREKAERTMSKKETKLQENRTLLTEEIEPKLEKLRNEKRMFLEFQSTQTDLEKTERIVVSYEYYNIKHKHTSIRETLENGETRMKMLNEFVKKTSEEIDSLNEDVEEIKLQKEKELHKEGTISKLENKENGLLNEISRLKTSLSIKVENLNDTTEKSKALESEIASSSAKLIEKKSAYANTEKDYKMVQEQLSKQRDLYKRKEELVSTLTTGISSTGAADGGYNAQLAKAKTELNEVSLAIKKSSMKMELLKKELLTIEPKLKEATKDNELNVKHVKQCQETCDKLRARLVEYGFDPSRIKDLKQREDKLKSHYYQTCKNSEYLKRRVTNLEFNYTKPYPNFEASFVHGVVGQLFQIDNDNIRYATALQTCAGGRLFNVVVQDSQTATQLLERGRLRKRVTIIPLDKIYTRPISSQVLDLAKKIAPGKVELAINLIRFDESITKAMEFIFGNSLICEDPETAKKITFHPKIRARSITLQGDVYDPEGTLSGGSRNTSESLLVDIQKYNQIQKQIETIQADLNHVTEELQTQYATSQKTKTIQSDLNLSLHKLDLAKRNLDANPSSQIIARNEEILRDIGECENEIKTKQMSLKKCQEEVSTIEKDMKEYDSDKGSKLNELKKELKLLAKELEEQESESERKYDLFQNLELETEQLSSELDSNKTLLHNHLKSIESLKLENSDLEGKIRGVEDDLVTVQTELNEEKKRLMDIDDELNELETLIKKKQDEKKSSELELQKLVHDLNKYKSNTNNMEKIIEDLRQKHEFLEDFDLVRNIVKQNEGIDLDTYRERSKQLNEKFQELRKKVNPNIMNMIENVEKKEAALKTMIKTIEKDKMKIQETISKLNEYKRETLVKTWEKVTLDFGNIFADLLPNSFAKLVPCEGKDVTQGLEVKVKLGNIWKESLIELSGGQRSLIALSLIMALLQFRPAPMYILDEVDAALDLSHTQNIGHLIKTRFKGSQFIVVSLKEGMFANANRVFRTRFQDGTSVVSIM
Chain of Smc2;Smc4;Brn1 (kleisin);Ycs4 (HAWK) (Q12267 whole entry, chain 2 of 4): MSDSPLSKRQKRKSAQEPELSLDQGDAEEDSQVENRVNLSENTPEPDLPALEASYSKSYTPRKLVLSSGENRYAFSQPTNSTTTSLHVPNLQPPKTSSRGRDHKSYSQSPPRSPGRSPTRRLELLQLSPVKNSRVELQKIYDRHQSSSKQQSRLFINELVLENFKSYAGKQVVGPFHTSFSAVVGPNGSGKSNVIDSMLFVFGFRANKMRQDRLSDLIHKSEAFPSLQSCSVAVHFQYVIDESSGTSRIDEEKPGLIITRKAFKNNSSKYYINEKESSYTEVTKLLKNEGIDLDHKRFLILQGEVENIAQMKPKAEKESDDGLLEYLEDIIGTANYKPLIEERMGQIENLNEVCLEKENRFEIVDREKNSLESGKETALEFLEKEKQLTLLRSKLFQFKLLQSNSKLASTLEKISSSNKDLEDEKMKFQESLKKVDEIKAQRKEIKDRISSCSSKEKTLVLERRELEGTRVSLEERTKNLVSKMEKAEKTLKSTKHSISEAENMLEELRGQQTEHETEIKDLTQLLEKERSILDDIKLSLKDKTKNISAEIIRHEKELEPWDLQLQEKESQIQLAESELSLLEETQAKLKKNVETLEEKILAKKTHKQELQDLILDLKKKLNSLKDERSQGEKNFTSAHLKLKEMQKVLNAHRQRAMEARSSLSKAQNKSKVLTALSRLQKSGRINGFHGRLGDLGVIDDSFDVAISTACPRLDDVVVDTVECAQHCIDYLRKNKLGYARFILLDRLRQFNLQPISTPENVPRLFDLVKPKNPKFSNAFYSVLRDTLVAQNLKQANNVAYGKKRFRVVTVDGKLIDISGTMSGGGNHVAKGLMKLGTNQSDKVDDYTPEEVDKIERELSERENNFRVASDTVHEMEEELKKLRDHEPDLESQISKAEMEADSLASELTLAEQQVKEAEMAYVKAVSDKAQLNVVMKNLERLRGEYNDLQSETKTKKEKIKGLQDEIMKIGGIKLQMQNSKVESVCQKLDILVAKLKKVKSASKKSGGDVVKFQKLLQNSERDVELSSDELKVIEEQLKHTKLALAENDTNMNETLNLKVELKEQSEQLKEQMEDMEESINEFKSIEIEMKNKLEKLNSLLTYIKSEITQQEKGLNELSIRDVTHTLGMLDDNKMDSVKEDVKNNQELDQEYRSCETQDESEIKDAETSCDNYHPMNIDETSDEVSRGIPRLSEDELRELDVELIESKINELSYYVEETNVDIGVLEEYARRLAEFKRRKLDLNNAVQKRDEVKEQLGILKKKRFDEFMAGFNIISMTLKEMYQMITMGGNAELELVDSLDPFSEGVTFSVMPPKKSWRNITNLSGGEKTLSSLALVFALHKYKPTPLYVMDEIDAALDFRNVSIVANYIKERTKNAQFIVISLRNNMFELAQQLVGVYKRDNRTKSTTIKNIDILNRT
Chain of Smc2;Smc4;Brn1 (kleisin);Ycs4 (HAWK) (P38170 whole entry, chain 3 of 4): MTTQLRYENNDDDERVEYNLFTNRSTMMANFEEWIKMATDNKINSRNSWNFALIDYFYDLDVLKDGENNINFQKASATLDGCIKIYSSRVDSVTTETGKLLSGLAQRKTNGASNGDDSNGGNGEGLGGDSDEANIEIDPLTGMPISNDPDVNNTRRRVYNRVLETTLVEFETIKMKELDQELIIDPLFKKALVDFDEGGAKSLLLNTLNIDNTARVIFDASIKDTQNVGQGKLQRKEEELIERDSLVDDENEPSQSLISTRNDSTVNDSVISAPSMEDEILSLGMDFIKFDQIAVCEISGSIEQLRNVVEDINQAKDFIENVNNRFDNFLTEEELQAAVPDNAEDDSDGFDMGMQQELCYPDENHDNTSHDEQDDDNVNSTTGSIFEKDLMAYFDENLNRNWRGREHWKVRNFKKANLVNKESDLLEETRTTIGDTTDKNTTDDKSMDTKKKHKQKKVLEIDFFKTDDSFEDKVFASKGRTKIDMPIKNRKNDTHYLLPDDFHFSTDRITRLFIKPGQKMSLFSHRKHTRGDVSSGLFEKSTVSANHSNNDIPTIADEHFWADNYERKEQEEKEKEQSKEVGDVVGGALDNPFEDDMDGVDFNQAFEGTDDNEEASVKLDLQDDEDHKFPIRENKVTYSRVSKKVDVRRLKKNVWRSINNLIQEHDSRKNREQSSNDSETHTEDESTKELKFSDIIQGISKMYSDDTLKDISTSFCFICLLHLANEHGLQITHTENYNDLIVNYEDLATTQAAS
Chain of Smc2;Smc4;Brn1 (kleisin);Ycs4 (HAWK) (Q06156 whole entry, chain 4 of 4): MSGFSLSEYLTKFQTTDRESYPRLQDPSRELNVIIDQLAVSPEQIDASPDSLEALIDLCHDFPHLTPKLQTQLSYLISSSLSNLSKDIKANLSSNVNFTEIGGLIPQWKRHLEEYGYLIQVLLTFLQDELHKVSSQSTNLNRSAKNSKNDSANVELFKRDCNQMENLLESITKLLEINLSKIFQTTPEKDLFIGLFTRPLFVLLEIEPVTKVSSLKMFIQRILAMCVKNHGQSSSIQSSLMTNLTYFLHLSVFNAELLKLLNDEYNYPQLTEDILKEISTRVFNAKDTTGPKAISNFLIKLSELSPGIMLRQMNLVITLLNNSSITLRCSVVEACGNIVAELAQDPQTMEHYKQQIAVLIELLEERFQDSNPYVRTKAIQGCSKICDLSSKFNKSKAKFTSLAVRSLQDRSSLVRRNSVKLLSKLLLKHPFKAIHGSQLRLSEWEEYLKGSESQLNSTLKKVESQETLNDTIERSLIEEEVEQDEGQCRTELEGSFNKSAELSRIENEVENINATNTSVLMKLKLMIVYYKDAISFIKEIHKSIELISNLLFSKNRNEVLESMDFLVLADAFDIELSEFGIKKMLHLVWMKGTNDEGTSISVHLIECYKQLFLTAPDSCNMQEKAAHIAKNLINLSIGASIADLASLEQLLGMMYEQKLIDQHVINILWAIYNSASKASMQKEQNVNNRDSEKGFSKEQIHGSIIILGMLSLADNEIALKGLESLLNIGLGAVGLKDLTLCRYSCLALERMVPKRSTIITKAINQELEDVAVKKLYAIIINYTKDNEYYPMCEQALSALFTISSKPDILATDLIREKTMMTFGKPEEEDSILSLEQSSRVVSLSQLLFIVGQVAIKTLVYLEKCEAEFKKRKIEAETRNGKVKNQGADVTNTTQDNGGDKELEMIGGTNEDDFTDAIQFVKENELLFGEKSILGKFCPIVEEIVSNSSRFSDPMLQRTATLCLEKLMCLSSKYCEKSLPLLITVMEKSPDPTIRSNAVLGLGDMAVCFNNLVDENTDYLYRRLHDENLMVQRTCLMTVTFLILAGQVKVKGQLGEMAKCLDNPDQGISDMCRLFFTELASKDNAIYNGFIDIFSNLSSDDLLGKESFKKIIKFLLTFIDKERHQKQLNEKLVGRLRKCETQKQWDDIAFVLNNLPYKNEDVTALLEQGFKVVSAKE

B1: 80-bp dsDNA (dsDNA)
DNA 1: GAATTCGGTGCGCATAATGTATAATAAGATAAATAAGCTTAAGTTCTTCCGATGCATAATAACATAATACGTGACTTTAC
DNA 2: GTAAAGTCACGTATTATGTTATTATGCATCGGAAGAACTTAAGCTTATTTATCTTATTATACATTATGCGCACCGAATTC
binds: [1] | [2] | [3]
